Test results taken from article PMC2191085.

What was measured:
[1] = target: CD2 on human PBLs (human (endogenous in PBLs)) (UniProt P06729)
[2] = target: CD2 on Jurkat cells (human (endogenous in Jurkat)) (UniProt P06729); experiment: inhibition of cell rosetting

| Substance | inhibition of T cell proliferation in response to HBsAg, LFA3TIP at 2 ug/ml [1] | fold lower concentration than LFA3TIP for inhibition of rosetting [2] |
| --- | --- | --- |
| LFA3TIP (first domain-LFA-3/IgG1 fusion protein) (Fc fusion) | 85% |  |
| multimeric phosphoinositol-linked LFA-3 (PI-LFA-3) (ligand) |  | 300 fold |
